In patent US20230272415:

Experiments:
Experiment in all cases: cell_activity
[1] = system: ZFN 59581 (synthetic construct); settings: pair with 59580; 6 ug mRNA, activated T cells; 83 at 2 ug, 72 at 0.5 ug
[2] = system: ZFN 59440 (synthetic construct); settings: pair with 59441; 6 ug mRNA, activated T cells; 82 at 2 ug, 59 at 0.5 ug
[3] = system: ZFN 59580 (synthetic construct); settings: pair with 59581; 6 ug mRNA, activated T cells; 83 at 2 ug, 72 at 0.5 ug
[4] = system: ZFN 59489 (synthetic construct); settings: pair with 59488; 6 ug mRNA, activated T cells; 84 at 2 ug, 60 at 0.5 ug
[5] = system: ZFN 59557 (synthetic construct); settings: pair with 59558; 6 ug mRNA, activated T cells; 80 at 2 ug, 55 at 0.5 ug
[6] = system: ZFN 59558 (synthetic construct); settings: pair with 59557; 6 ug mRNA, activated T cells; 80 at 2 ug, 55 at 0.5 ug
[7] = system: ZFN 59488 (synthetic construct); settings: pair with 59489; 6 ug mRNA, activated T cells; 84 at 2 ug, 60 at 0.5 ug
[8] = system: ZFN 59441 (synthetic construct); settings: pair with 59440; 6 ug mRNA, activated T cells; 82 at 2 ug, 59 at 0.5 ug

Question: How did the activity [1] turn out when “ATAGTGCTGCACAAGGCTGACCACATCC (double strand) [CISH exon 3 target of 59581]” was run?
Answer: 82 % cleavage

Question: How did the activity [2] turn out when “CCAGCAAAGGACGAGGTCTAGAAGGCAG (double strand) [CISH exon 2 target of 59440]” was run?
Answer: 84 % cleavage

Question: For “CCGGAAAGGCCAGGATGCGTGGCCTGGA (double strand) [CISH exon 3 target of 59580]”, which activity [3] is on record?
Answer: 82 % cleavage

Question: For “GAGGAGGTGGCAGAGGGTACCCCAGCCC (double strand) [CISH exon 2 target of 59489]”, which activity [4] is on record?
Answer: 89 % cleavage

Question: Which activity [5] does the source give for “GAGTCCAGACGGAAGCTGGAGTCGGCAT (double strand) [CISH exon 3 target of 59557]” here?
Answer: 84 % cleavage

Question: How did the activity [6] turn out when “GATGCGTGGCCTGGACAAGCAGTTGGAG (double strand) [CISH exon 3 target of 59558]” was run?
Answer: 84 % cleavage

Question: “GGAAGGCCCCAGCAGGCAAGGGCTGCAT (double strand) [CISH exon 2 target of 59488]” was tested. Which activity [7] did it give?
Answer: 89 % cleavage

Question: How did the activity [8] turn out when “GTGGAGCGGACTGGGCAGCGGCCCCTGT (double strand) [CISH exon 2 target of 59441]” was run?
Answer: 84 % cleavage
